Source: article PMC9146797, “[^99mTc]Tc-Labeled Plectin-Targeting Peptide as a Novel SPECT Probe for Tumor Imaging” (Pharmaceutics, 2022)
Where a SMILES comes first, the peptide text is derived from it. Where no end group is shown, it is not given here.

Columns and labels:
healthy ICR mice = assay: Pharmacokinetics in blood; format: in vivo; details: for radioactivity in blood: i.v. 20 µCi
Protocol: The pharmacokinetic profile of [^99mTc]Tc-HYNIC-PTP was investigated in healthy ICR mice. The mice were randomly divided into nine groups (n = 3), and each mouse was intravenously injected with [^99mTc]Tc-HYNIC-PTP at a dose of 20 µCi in a 200 µL solution. One hundred microliters of blood from each mouse was immediately collected and weighed at designated times (1, 2, 5, 15, 30, 60, 120, 240, and 360 min), and radioactivity was measured using a γ-counter (CAPINTEC, USA) to calculate the percent uptake of the injected dose per gram (%ID/g). In addition, the pharmacokinetic data were analyzed by DAS 2.0 (Shanghai, China) using a two-compartment model to calculate the half-life of [^99mTc]Tc-HYNIC-PTP in the blood.

[1] = tested on: tumor-bearing mice (U87, C6, A549, 4T1, and BxPC-3); assay: SPECT imaging in vivo; details: i.v. 200 µL of 10 mCi/mL, 0.5-4 h
Protocol: The feasibility of [^99mTc]Tc-HYNIC-PTP as a SPECT probe for tumor imaging was examined using established subcutaneous tumor models. Briefly, [^99mTc]Tc-HYNIC-PTP solution (200 µL, [^99mTc]Tc = 10 mCi/mL, corresponding to 2 µg of HYNIC-PTP) was intravenously injected into tumor-bearing mice. SPECT images were acquired 0.5, 1, 2, and 4 h after injection using a SPECT imaging system equipped with a Xeleris 2.0 workstation and low-energy general-purpose collimators (Infinia, Denver, CO, USA). After SPECT imaging, the tumors and muscle tissues were excised to confirm plectin expression levels by immunohistochemistry. Briefly, excised specimens were fixed in formalin and embedded in paraffin. The sections (5 μm) were subjected to heat treatment in a citrate solution for antigen retrieval and blocking with 3% bovine serum albumin for 30 min. Then the sections were incubated with anti-plectin primary antibody (1:200) overnight at 4 °C. After incubation with secondary antibody (K5007, DAKO, Carpinteria, CA, USA) at room temperature for 50 min, the slides were treated with 1:100 DAB (K5007, DAKO, USA) and counterstained with hematoxylin. At least three sections of each specimen were chosen, and 5–10 high-power visual fields were randomly selected to calculate the positive area of staining. The average areas were then used to plot histograms.

[2] = In vitro stability in FBS (RCP by ITLC); format: in vitro ADME, bovine; details: 37 °C, 0-6 h
Protocol: The [^99mTc]Tc-labeled PTP was characterized using an Agilent 1260 HPLC system (Agilent Technologies, Santa Clara, CA, USA) equipped with a UV-vis detector (λ = 220 nm) and a radioactive flow detector (BioScan, Poway, CA, USA). A SunFire C18 column (5 µm, 4.6 × 250 mm, Waters, Japan) was used at a 1 mL/min flow rate with the following gradient method: 0.1% trifluoroacetic acid in H2O and CH3CN (0–20 min, 15–45% CH3CN). The RCP of [^99mTc]Tc-HYNIC-PTP was determined by radio-HPLC and could also be rapidly analyzed by ITLC in a system consisting of silica gel 60 F254 TLC plates (Merck, Germany) and 50% acetonitrile as mobile phase. To assess the stability in vitro, the formed [^99mTc]Tc-HYNIC-PTP (500 μL, 1 mCi) was mixed with 500 μL of PBS (0.1 M, pH = 7.4) and 500 µL of cysteine solution (100-fold molar excess over the PTP) at room temperature, and 500 µL of FBS at 37 °C. The RCPs were tested by ITLC at different time intervals (0–6 h).

CCK-8 cytotoxicity assay = format: cell-based; details: C6 and BEAS-2B cells, PTP 0-200 µg/mL, CCK-8, absorbance 450 nm, BxPC-3, C6, BEAS-2B cells (Figure S1), read-out: cell viability
Protocol: CCK-8 assays were used to assess the potential cytotoxic effects of PTP on normal and tumor cell lines. Briefly, taking BxPC-3 cells as an example, the cells were seeded into 96-well plates at a density of 1 × 10^4 per well with RPMI-1640 medium and 10% FBS. After 24 h, the medium was replaced with 100 µL of fresh medium containing different concentrations of PTP (0–200 µg/mL) for another 24 h. Next, 10 µL of CCK-8 solution was added, and the cells were subsequently cultured for 1.5 h. Absorbance at 450 nm was measured using a Varioskan Flash multimode microplate reader (Thermo Fisher Scientific, Waltham, MA, USA). The cytocompatibility of PTP was also assessed in C6 and BEAS-2B cells using the same method.

BALB/c nude mice = assay: Preliminary toxicity study in vivo
Protocol: To assess the preliminary safety in vivo, five BALB/c nude mice were treated with PTP at a single dose (1 mg, 100 µL), and another five mice treated with saline were used as the control group. The body weight, physical activity, and death of each mouse were recorded during the following seven days. The major organs of the mice, including the heart, liver, spleen, lung, and kidneys, were harvested for histological examination.

[3] = blood, two-compartment model, DAS 2.0

| Compound | radioactivity in blood (healthy ICR mice; 1 min post-injection, n = 3, γ-counter) [%ID/g] | radioactivity in blood (healthy ICR mice; 30 min post-injection, n = 3) [%ID/g] | radioactivity in blood (healthy ICR mice; 360 min post-injection, n = 3) | clear-phase half-life (t1/2 beta) (healthy ICR mice; [3]) [min] | distribution-phase half-life (t1/2 alpha) (healthy ICR mice; [3]) [min] | route of clearance [1] | change of RCP in FBS [2] | viability at 24 h (CCK-8 cytotoxicity assay) [%] | death of mice (BALB/c nude mice; single dose 1 mg in 100 µL, five mice, seven days, vs saline) | body weight and physical activity (BALB/c nude mice; single dose 1 mg in 100 µL, within seven days, vs saline group) | H&E staining of main organs (heart, liver, lung, spleen, kidneys) (BALB/c nude mice; single dose 1 mg, vs saline group (Figure S2)) |
| --- | --- | --- | --- | --- | --- | --- | --- | --- | --- | --- | --- |
| CC(C)C[C@H](NC(=O)[C@@H](NC(=O)[C@H](CCCCN)NC(=O)c1ccc(NN)nc1)[C@@H](C)O)C(=O)N[C@@H](CC(C)C)C(=O)N1CCC[C@H]1C(=O)N[C@H](C(=O)N1CCC[C@H]1C(=O)O)[C@@H](C)O [[^99mTc]Tc-HYNIC-PTP, metal not drawn] (HELM PEPTIDE1{[NNc1ccc(C(=O)[*:2])cn1].K.T.L.L.P.T.P}$$$$V2.0) | 14.52 | 1.35 | Less than 0.01 %ID/g | 9.17 | 0.88 | predominantly cleared through the urinary system | no evident changes in RCPs |  |  |  |  |
| KTLLPTP [PTP] |  |  |  |  |  |  |  | > 90 | None of the mice died | no significant difference | no significant difference in tissue damage, necrotic areas, or abnormalities |
